Data reported in publication PMC11623921 (Nature chemical biology, 2023).

Tests used:
TnmJ = assay: isothermal titration calorimetry; format: binding, Streptomyces sp. CB03234; details: native substrate
[1] = biological target: TnmJ (Streptomyces sp. CB03234); assay: SEC
[2] = biological target: TnmJ (Streptomyces sp. CB03234); assay: crystal structure

Substance | Kd (TnmJ) | stoichiometry N [1] | stoichiometry N [2]
TNM I [compound 8] | 3.4 µM |  | 
TnmJ (enzyme) |  | 2 | 2
